The target of assay [1] is nPTEN-GFP (expressed in HEK293) (human) (UniProt P60484). The experiment in a line: co-IP; PTEN-GFP constructs from HEK293 lysates held on anti-GFP beads (two hours), then 400 ul whole-cell lysate of HEK293 expressing HA-NEDD4-1 added for three hours; three washes; blots with anti-GFP and anti-HA; band intensity quantified (n = 3).
For assay [2], the target named is ePTEN-GFP (expressed in HEK293) (human) (UniProt P60484). The description is as above.

As for “HA-NEDD4-1 (from UniProt P46934 1-1319) (enzyme)”, the increase of co-precipitated NEDD4-1 against GFP alone and wild-type PTEN-GFP in assay [1] and in assay [2] was 2.5 each time.

For the origin of these results see article PMC4517176.
